Results taken from the supplement of paper PMC10567573.
± gives the standard deviation.

Test: protein stability index of a GFP-peptide fusion (GPS, HEK-293T) (PSI 1-6); higher = more stable
Settings: c terminus: a fixed tail appended
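Note: 24-mer peptide tiles fused after GFP, lentivirally expressed, FACS-sorted into six equal bins by GFP/DsRed ratio, decoded by Illumina sequencing, PSI is the read-weighted mean bin number.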

| Sequence | protein stability index (treatment: DMSO) | protein stability index (treatment: MLN4924 1 uM, 8 h) |
| --- | --- | --- |
| RDGEPEPMQKLQDLVNRTPWKKCC [RBBP5] | 4 ± 0.21 | 4.04 ± 0.21 |
| RDLASVPPELTASRQSFRMAMGNP [DVL3] | 3.75 ± 0.32 | 3.81 ± 0.13 |
| RDSSFLISGGFDRTVAIWDVAEGY [WDR88] | 2.71 ± 0.16 | 2.86 ± 0.23 |
| REDKATIKCETSPPSSPRTLRLEK [PPFIA4] | 5.51 ± 0.18 | 5.45 ± 0.15 |
| REEDFPSLREYNDFLEEVEEIVFN [MNAT1] | 3.82 ± 0.16 | 3.73 ± 0.28 |
| REEEEKTPPETKPDPPVNFLRQKV [PCMTD2] | 5.34 ± 0.26 | 5.29 ± 0.087 |
| REKGGKVLVHCEAGISRSPTICMA [DUSP5] | 2.93 ± 0.27 | 3.03 ± 0.38 |
| RELAERGVRIVSRGRTQLFSLNPR [PCDHGA10] | 3.2 ± 0.35 | 3.33 ± 0.12 |
| RENGNNSSDKVRGIETLESVPIIG [PHTF1] | 4.8 ± 0.33 | 4.53 ± 0.36 |
| RESCPPLGLETLKITDFQLHASTV [CPXM2] | 3.29 ± 0.15 | 3.32 ± 0.14 |
| REVRRAQARLLNPSATRAKPGPQD [NOP53] | 4.75 ± 0.28 | 4.66 ± 0.14 |
| RGIFVVRGENVVLLGEIDLEKESD [LSM1] | 2.37 ± 0.23 | 2.31 ± 0.52 |
| RGKKLMVLTEPILIETYTGLMSFI [TPRG1] | 2.95 ± 0.34 | 2.6 ± 0.48 |
| RGPPRGLRGGRGGSGGTRGPPSRG [RBMX] | 5.18 ± 0.2 | 4.92 ± 0.33 |
| RHDVIVSIVTAAKKDILLVNDHLL [PDS5B] | 2.51 ± 0.31 | 2.29 ± 0.5 |
| RHSISMPAMRNSPTFKSFEERVET [TPD52L1] | 4.66 ± 0.18 | 4.75 ± 0.42 |
| RIHTEEKPYKCQQCDKRFRWSSDL [ZNF75A] | 3 ± 0.2 | 2.94 ± 0.091 |
| RISNPSDDNSCEDLEEERREEEEK [PCMTD2] | 5.59 ± 0.099 | 5.704 ± 0.05 |
| RKLLEGEESRISVPVHSFASLNIK [PRPH] | 2.96 ± 0.23 | 3.31 ± 0.41 |
| RKRIRTYLKSCRRMKKNGMEMTRP [NOL4L] | 3.28 ± 0.21 | 3.32 ± 0.22 |
| RKRRLFCTMEPEPVQPGMLIDVCK [TRIM35] | 2.6 ± 0.41 | 2.69 ± 0.12 |
| RKVCVGGKRRKDEISVDSLDFSKK [PPP2R2B] | 4.33 ± 0.26 | 4.31 ± 0.27 |
| RKWHKASNYIFVAIFWIVFLLLIV [P2RY14] | 3.34 ± 0.35 | 3.43 ± 0.17 |

| Sequence | protein stability index (treatment: DMSO) | protein stability index (treatment: MLN4924 1 uM, 8 h) |
| --- | --- | --- |
| RLDLAAVTLRRGLRSRASRCRPRS [FAM189A2] | 3.7 ± 0.15 | 3.89 ± 0.32 |
| RLLQASGGGLTGVSGSHFVGVDGV [PCDHGA10] | 2.78 ± 0.46 | 3.01 ± 0.28 |
| RLMDVCATSRTDREIKVTLVFEHV [CDK4] | 2.65 ± 0.57 | 2.5 ± 0.15 |
| RMGDADYLAAWHRLVLPIAYEFNP [HDAC6] | 2.27 ± 0.56 | 2.3 ± 0.44 |
| RMIPGQPPASARRLSVPRDSACDE [IRX6] | 5.29 ± 0.24 | 5.29 ± 0.15 |
| RMKKNGMEMTRPTPPHLTSAMAEN [NOL4L] | 4.41 ± 0.071 | 4.37 ± 0.29 |
| RMQYAPDLMKRLRFALIPAPELVE [KLHL14] | 2.25 ± 0.1 | 2.05 ± 0.088 |
| RNKESPVFAPVYFPEELHRKAALE [HMOX1] | 4.11 ± 0.4 | 4.147 ± 0.023 |
| RPISGTAVAHKTPRCPGSVNEKLP [SMOC2] | 4.53 ± 0.14 | 4.59 ± 0.26 |
| RPNDDSLAFLDKIKSVKESLQESV [IQUB] | 3.64 ± 0.034 | 3.34 ± 0.32 |
| RRRVPVRNLGKVVHYAKVQLRFQH [PLEKHN1] | 2.35 ± 0.39 | 2.29 ± 0.25 |
| RRSNSPDKFKRPTPPPSPNTQTPV [CCDC6] | 5.27 ± 0.19 | 5.25 ± 0.16 |
| RRWHKSRLLQASGGGLTGVSGSHF [PCDHGA10] | 2.67 ± 0.21 | 2.83 ± 0.16 |
| RSIRQYYKKGIIRKPDISQRLVYQ [SPDEF] | 2.84 ± 0.24 | 2.97 ± 0.42 |
| RSLFIDRTIVKGYNENVYTEDGKL [MED27] | 4.07 ± 0.25 | 4.12 ± 0.21 |
| RSPTLEPPRGRSEAPDSLNGPLGP [SMG5] | 4.89 ± 0.26 | 4.77 ± 0.055 |
| RTLSLIVCTFTYLLVGAAVFDALE [KCNK9] | 2.82 ± 0.7 | 3.19 ± 0.81 |
| RTNDGKITYPPGVKEISDKISKEE [PDS5B] | 5.02 ± 0.19 | 5.197 ± 0.006 |
| RTNLPIFKLKESCVRRRYSDFEWL [SNX12] | 2.27 ± 0.29 | 2.74 ± 0.56 |
| RTTSVRCRGIPRGPVRPAIPPPLS [NEK8] | 3.37 ± 0.1 | 3.64 ± 0.23 |
| RTYKQRFLFAKLFSHITSARKARK [PHTF1] | 2.17 ± 0.14 | 2.55 ± 0.58 |
| RWNKVKMVVSREEVELAYQEAMFN [SEPHS2] | 2.62 ± 0.21 | 2.66 ± 0.29 |
| RWTSYRFSRVCRLHRGQLSLFCLE [TRIM35] | 2.43 ± 0.54 | 2.23 ± 0.42 |

| Sequence | protein stability index (treatment: DMSO) | protein stability index (treatment: MLN4924 1 uM, 8 h) |
| --- | --- | --- |
| RYCMQLSQIQGLIGSVEEQLAQLR [KRT16] | 2.28 ± 0.45 | 2.49 ± 0.28 |
| RYLLCELVSDDPRCRLSLDDRVLS [POP5] | 2.31 ± 0.25 | 2.36 ± 0.27 |
| RYRQAGSSGPGNSQNSFLVQEVME [RPAIN] | 4.17 ± 0.23 | 3.82 ± 0.28 |
| SADVNARDKNWQTPLHVAAANKAV [ANKRD44] | 4.18 ± 0.31 | 4.07 ± 0.18 |
| SADVVSPSGHSDAQTLAMMLQEQL [PPFIA4] | 4.54 ± 0.32 | 4.97 ± 0.35 |
| SAGVGRTGVFITLSIVLERMRYEG [PTPRD] | 2.08 ± 0.095 | 2.34 ± 0.28 |
| SAMALVKHSVLLSASRKSAEQLRI [WEE1] | 2.06 ± 0.093 | 2.16 ± 0.13 |
| SARDCKFTGNFFYNYMMGIEFNPR [DHCR7] | 2.24 ± 0.44 | 2.07 ± 0.59 |
| SARMSAGLPGPEAARSGDAAANKL [PLEKHN1] | 5.22 ± 0.085 | 4.92 ± 0.18 |
| SARQGELQKVLLMLVDGIDPNFKM [EHMT1] | 1.98 ± 0.23 | 2.04 ± 0.29 |
| SASASTTTTVTAVTAEVDLFGDAF [SNAP91] | 4.28 ± 0.28 | 4.28 ± 0.29 |
| SASEMKQLIDNILEESDIDRDGTI [CIB1] | 5.31 ± 0.27 | 5.45 ± 0.2 |
| SASLEVVKKDHVALQVPRGKEDST [CBY2] | 5.4 ± 0.16 | 5.35 ± 0.23 |
| SCAWSLNIQANNCFSTGLSRRVLL [DCAF4] | 3.38 ± 0.47 | 2.35 ± 0.38 |
| SCLKAIVLFTSDACGLSDVAHVES [NR2F2] | 2.43 ± 0.7 | 2.08 ± 0.36 |
| SCVIPLRHGGLSLVQTTDFFYPLV [SEPHS2] | 2.42 ± 0.34 | 2.31 ± 0.45 |
| SCYQVYCGRYINGHMLQHHGNSGH [HDAC6] | 2.49 ± 0.54 | 2.21 ± 0.16 |
| SDTPYDSSASYEKENEMMKSHVMD [IKZF1] | 5.2 ± 0.31 | 5.13 ± 0.2 |
| SEALLYALVHDHQAYAHYLLATFP [ANKRD9] | 2.7 ± 0.49 | 2.61 ± 0.53 |
| SEEAPSTSGMGFHAPKIGSNGVEM [SDE2] | 4.92 ± 0.17 | 4.89 ± 0.1 |
| SEEQLQEPITGWRKTVCHNGVLGL [LPCAT4] | 3.58 ± 0.45 | 3.64 ± 0.38 |
| SEHLKQRREVAKTVFCLVVIFALC [EDNRA] | 2.58 ± 1.3 | 3.31 ± 0.89 |
| SEPFLTPYLLGPDKNLTEREVFNE [SLC19A2] | 4.8 ± 0.053 | 4.83 ± 0.062 |

| Sequence | protein stability index (treatment: DMSO) | protein stability index (treatment: MLN4924 1 uM, 8 h) |
| --- | --- | --- |
| SETLEQKPHFESSTVKTETISFGS [EPB41L3] | 5.19 ± 0.073 | 4.95 ± 0.34 |
| SFAQATQLGDLHTCLMMDMKACQE [INTS3] | 3.21 ± 0.19 | 3.3 ± 0.43 |
| SFELLVRFFACPSKATFSRNIMNL [KCNA3] | 3.16 ± 0.46 | 2.96 ± 0.25 |
| SGDAAAQPAFTGIKGKEGSALTEG [EPB41L3] | 5.55 ± 0.24 | 5.32 ± 0.33 |
| SGFWGVARHFNYVGDLMGSLAYCL [DHCR7] | 2.11 ± 0.48 | 2.07 ± 0.11 |
| SGGVASFICQATGDPRPKIVWNKK [PTPRD] | 3.46 ± 0.49 | 3.58 ± 0.11 |
| SGKSEISELRRTMQALEIELQSQL [KRT17] | 3.58 ± 0.35 | 3.68 ± 0.15 |
| SGRKNSTSKDLVTLGASSLREERG [C6orf223] | 4.77 ± 0.099 | 4.87 ± 0.26 |
| SGTGKKEKEKKNRKGKDKENGSVS [EIF5] | 5.36 ± 0.24 | 5.31 ± 0.21 |
| SGTIMKIGIEAKNLASYDVCSILL [MCOLN1] | 2.87 ± 0.55 | 2.64 ± 0.37 |
| SGTPKRYSLELGKAIKQKLWEALC [C22orf31] | 2.9 ± 0.67 | 2.9 ± 0.37 |
| SGYDGTFLFQKPGDKYEHHSYMGM [POMT2] | 2.68 ± 0.23 | 2.5 ± 0.5 |
| SIPQSSLEPLKAIIQYRLPMKKNN [ACSBG2] | 3.48 ± 0.14 | 3.49 ± 0.3 |
| SKAWHQKSHFQNSREWSGKEKWWD [PBXIP1] | 2.94 ± 0.04 | 3.2 ± 0.34 |
| SKDCKPPVYLLLELEDKDGLQSAQ [MYBL2] | 3.93 ± 0.18 | 3.87 ± 0.12 |
| SKIPHILKEMYDADLLEEEVIISW [EIF5] | 2.19 ± 0.38 | 2.4 ± 0.24 |
| SKQLTLEQLRREKIDLENTLEQEQ [CCDC6] | 5.43 ± 0.26 | 5.2 ± 0.11 |
| SKRLAVPCKLEKMRILAHGELVLA [TLE6] | 2.26 ± 0.49 | 2.35 ± 0.45 |
| SKYENYFSASERLSLKRELSWYRG [HESX1] | 2.44 ± 0.26 | 2.31 ± 0.33 |
| SLDKRQGEGLRIYWGSPEEQSLLS [TPRG1] | 2.77 ± 0.15 | 2.85 ± 0.39 |
